Measured values published in patent US20220127309A1.

Experiments:
[1] = biological target: Ectodomain of RSV F (1-520) - HIV GP160-based SSM (Respiratory Syncytial virus); experiment: ELISA, printed as affinity (FIG. 1A)
[2] = biological target: Ectodomain of RSV F (1-520) - DScav mutations - HIV GP160-based SSM (Respiratory Syncytial virus); experiment: ELISA, printed as affinity (FIG. 1B)
[3] = biological target: Ectodomain of RSV F (1-513) - DScav mutations - Foldon SSM (Respiratory Syncytial virus); experiment: ELISA, printed as affinity (FIG. 1B)
[4] = biological target: Ectodomain of RSV F (1-520) - DScav mutations - HIV GP160-based SSM (Respiratory Syncytial virus); experiment: ELISA, printed as affinity (FIG. 1C)
[5] = biological target: Ectodomain of RSV F (1-513) - DScav mutations - Foldon SSM (Respiratory Syncytial virus); experiment: ELISA, printed as affinity (FIG. 1C)

Row | Substance | Kd [1] | Kd [2] | Kd [3] | Kd [4] | Kd [5]
1 | Prefusion specific monoclonal antibody D25 | 23.4 nM | 1.2 nM | 1.3 nM | – | –
2 | Broadly cross-neutralizing, prefusion specific monoclonal antibody MPE8 | – | – | – | 7.6 nM | 10.8 nM
